Read-outs that look alike come from different tables or passages of the source.
T1: C.Csp231I C-ARQ (Cmut) (Citrobacter sp. (Csp231I R-M system), UniProt Q32WH4 1-98, A33G;R34E;Q37A)
T1 sequence: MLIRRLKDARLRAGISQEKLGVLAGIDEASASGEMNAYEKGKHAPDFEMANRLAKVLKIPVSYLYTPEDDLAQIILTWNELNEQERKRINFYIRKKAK

T2: C.Csp231I (C protein, WT) (Citrobacter sp. (Csp231I R-M system), UniProt Q32WH4 1-98)
T2 sequence: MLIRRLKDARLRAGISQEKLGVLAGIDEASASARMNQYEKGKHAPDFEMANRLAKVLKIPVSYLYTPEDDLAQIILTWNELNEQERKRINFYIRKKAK

B1: racR (176 bp) (dsDNA)
DNA 1: GCGACGCCTAACGCAATTGTCAATAGGCTGTGCCTAATGCAGTAAGGGTAGGGATTGCCTAATGTAATGCGCATAGGAGAATATTAAGCAATGCTTAGTGGTAAAGACTTAGGCCGAGCGATAGAGCAGGCCATTAACAAAAAAATCGCATCGGGATCCGTCAAATCAAAGGCGG
DNA 2: CCGCCTTTGATTTGACGGATCCCGATGCGATTTTTTTGTTAATGGCCTGCTCTATCGCTCGGCCTAAGTCTTTACCACTAAGCATTGCTTAATATTCTCCTATGCGCATTACATTAGGCAATCCCTACCCTTACTGCATTAGGCACAGCCTATTGACAATTGCGTTAGGCGTCGC
B2: racRmut (176 bp) (dsDNA)
DNA 1: GCGACGCCTAACGCAATTGTCAATAGGCTGTGCCTAATGCAGTAAGGGTAGGGATTGCCTAATGTAATGCGCATAGGAGAATATTAAGCAATGCGCATTGGTAAAGACTTAGGCCGAGCGATAGAGCAGGCCATTAACAAAAAAATCGCATCGGGATCCGTCAAATCAAAGGCGG
DNA 2: CCGCCTTTGATTTGACGGATCCCGATGCGATTTTTTTGTTAATGGCCTGCTCTATCGCTCGGCCTAAGTCTTTACCAATGCGCATTGCTTAATATTCTCCTATGCGCATTACATTAGGCAATCCCTACCCTTACTGCATTAGGCACAGCCTATTGACAATTGCGTTAGGCGTCGC

Assays:
Assay in all cases: EMSA
C.Csp231I C-ARQ (Cmut) = molecular target: T1, C.Csp231I C-ARQ (Cmut)
[1] = molecular target: T2, C.Csp231I (C protein, WT)
[2] = molecular target: T2, C.Csp231I (C protein, WT); remark: listed apart in the source

Binder	binding result (C.Csp231I C-ARQ (Cmut))	binding result [1]	binding result [2]
B1	no binding	binds	–
B2	no binding	–	no binding
